These results are taken from patent publication US20220332813A1 (UNIVERSITY OF MARYLAND BALTIMORE, published 2022).

Assay [1] addresses T1, human recombinant tau (2N4R) (human, UniProt P10636-8 1-441).
T1 construct: Radio-iodinated in the cell assays; also called monomeric tau; full-length tau (2N4R)
Put plainly: SPR, SorLA fragment 82-181 immobilised, increasing tau.

In assay [2] the target is T2, hyperphosphorylated 2N4R tau produced by Sf9 cells (human, UniProt P10636-8 1-441, hyperphosphorylated (produced in Sf9 insect cells, intermediate phosphorylation state); sites not stated).
T2 construct: His-tagged; also called SF9 tau; 2N4R SF9
In words: SPR equilibrium (KD eq, Req fit).

The target of assay [3] is T2, hyperphosphorylated 2N4R tau produced …. Put plainly: SPR, from kinetic parameters of the 1:1 fit.
Assay [4] has as its target T1, human recombinant tau (2N4R). Put plainly: SPR, from kinetic parameters of the 1:1 fit.
Assay [5] addresses T2, hyperphosphorylated 2N4R tau produced …. In words: SPR single cycle, VPS10P domain immobilised, 1:1 fit.
In assay [6] the target is T1, human recombinant tau (2N4R). Described as above.

T1 sequence (P10636 other isoform, or with tags, fused parts or gaps limits assumed): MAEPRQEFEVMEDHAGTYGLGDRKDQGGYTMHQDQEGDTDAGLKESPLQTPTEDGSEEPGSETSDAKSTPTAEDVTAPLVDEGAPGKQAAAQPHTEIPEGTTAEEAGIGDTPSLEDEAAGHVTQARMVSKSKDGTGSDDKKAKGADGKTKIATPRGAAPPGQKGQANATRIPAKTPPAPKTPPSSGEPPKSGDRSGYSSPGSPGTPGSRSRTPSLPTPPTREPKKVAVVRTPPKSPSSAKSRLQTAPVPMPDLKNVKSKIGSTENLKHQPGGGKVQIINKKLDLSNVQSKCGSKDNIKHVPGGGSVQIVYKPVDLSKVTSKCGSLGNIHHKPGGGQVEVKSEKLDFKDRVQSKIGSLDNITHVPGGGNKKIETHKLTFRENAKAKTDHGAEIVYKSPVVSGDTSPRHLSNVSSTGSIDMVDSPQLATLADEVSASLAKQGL
T2 sequence (P10636 other isoform, or with tags, fused parts or gaps limits assumed): as above

B1: commercially available fragment of SorLA comprising residues 82-181 (receptor)
chain: SAALQPEPIKVYGQVSLNDSHNQMVVHWAGEKSNVIVALARDSLALARPKSSDVYVSYDYGKSFKKISDKLNFGLGNRSEAVIAQFYHSPADNKRYIFAD
notes: The range may be a misprint for 82-753; also called SorLA fragment
In the case of B1, the dissociation constant (Kd) in assay [1] came to 40 nM.

B2: recombinant human SORLA VPS10P domain (residues 82-753) (receptor)
chain: SAALQPEPIKVYGQVSLNDSHNQMVVHWAGEKSNVIVALARDSLALARPKSSDVYVSYDYGKSFKKISDKLNFGLGNRSEAVIAQFYHSPADNKRYIFADAYAQYLWITFDFCNTLQGFSIPFRAADLLLHSKASNLLLGFDRSHPNKQLWKSDDFGQTWIMIQEHVKSFSWGIDPYDKPNTIYIERHEPSGYSTVFRSTDFFQSRENQEVILEEVRDFQLRDKYMFATKVVHLLGSEQQSSVQLWVSFGRKPMRAAQFVTRHPINEYYIADASEDQVFVCVSHSNNRTNLYISEAEGLKFSLSLENVLYYSPGGAGSDTLVRYFANEPFADFHRVEGLQGVYIATLINGSMNEENMRSVITFDKGGTWEFLQAPAFTGYGEKINCELSQGCSLHLAQRLSQLLNLQLRRMPILSKESAPGLIIATGSVGKNLASKTNVYISSSAGARWREALPGPHYYTWGDHGGIITAIAQGMETNELKYSTNEGETWKTFIFSEKPVFVYGLLTEPGEKSTVFTIFGSNKENVHSWLILQVNATDALGVPCTENDYKLWSPSDERGNECLLGHKTVFKRRTPHATCFNGEDFDRPVVVSNCSCTREDYECDFGFKMSEDLSLEVCVPDPEFSGKSYSPPVPCPVGSTYRRTRGYRKISGDTCSGGDVEARLEGELVPCP
notes: also called SORL1 VPS10 domain; R&D Systems 9880-LA
B2: the figures for the equilibrium dissociation constant (Kd) in assay [2], in assay [3] and in assay [4] were 95 nM, 78 nM and 15 nM, respectively. Further, the koff in assay [5] is 0.0061 s⁻¹; in assay [6], 0.41 s⁻¹. Besides, the on-rate constant (kon) in assay [5] is 85000 M⁻¹ s⁻¹; in assay [6], 5e+07 M⁻¹ s⁻¹.
